From paper PMC3320582, “Group A Streptococcus Secreted Esterase Hydrolyzes Platelet-Activating Factor to Impede Neutrophil Recruitment and Facilitate Innate Immune Evasion” (PLoS Pathogens, 2012)

Substrate: [H][C@@](COCCCCCCCCCCCCCCCC)(COP(=O)([O-])OCC[N+](C)(C)C)SC(C)=O
Assay: purified protein
Format: biochemical, Homo sapiens
Conditions: PAF acetylhydrolase assay kit; measured as comparison to SsE

B1: human recombinant plasma PAF acetylhydrolase (Homo sapiens) (protein)
chain: FDWQYINPVAHMKSSAWVNKIQVLMAAASFGQTKIPRGNGPYSVGCTDLMFDHTNKGTFLRLYYPSQDNDRLDTLWIPNKEYFWGLSKFLGTHWLMGNILRLLFGSMTTPANWNSPLRPGEKYPLVVFSHGLGAFRTLYSAIGIDLASHGFIVAAVEHRDRSASATYYFKDQSAAEIGDKSWLYLRTLKQEEETHIRNEQVRQRAKECSQALSLILDIDHGKPVKNALDLKFDMEQLKDSIDREKIAVIGHSFGGATVIQTLSEDQRFRCGIALDAWMFPLGDEVYSRIPQPLFFINSEYFQYPANIIKMKKCYSPDKERKMITIRGSVHQNFADFTFATGKIIGHMLKLKGDIDSNVAIDLSNKASLAFLQKHLGLHKDFDQWDCLIEGDDENLIPGTNINTTNQHIMLQNSSGIEKYN
notes: commercial recombinant protein (Cayman Chemical)
Km: 8.0 µM
kcat: 15.4 s⁻¹
